Reference: the supplement of paper PMC9170038

Tested on: MS2 coat protein
Assay: apparent KD of MS2 coat protein; designed switch direction (-1 OFF switch, 1 ON switch): -1; higher = weaker reporter binding
In short: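 Designed RNA switches sharing common flanks were transcribed on Illumina chips by stalled E. coli RNA polymerase. They were titrated with SNAP-549-labelled MS2 coat protein, from 0.7 or 1.5 nM doubling to 3 µM, in Tris-HCl pH 7.5 buffer with KCl, MgCl2, BSA, DTT, tRNA and Tween-20. Titrations ran without input, with 200 uM small-molecule ligand, or with an oligonucleotide input. The apparent KD of each design is the median over its clusters, after curve-fitting of normalised cluster fluorescence.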

[1] = input ligand: microRNA oligo, concentration not stated

Row | Sequence | apparent KD of MS2 coat protein (input ligand: FMN 200 uM) | apparent KD of MS2 coat protein [1] | apparent KD of MS2 coat protein (input ligand: none)
1 | ACAGGUUUCAUAGGAUAUCUCUGACUAUGGCACUCCUUGUGUCCACAUGAGGAUCACCCAUGUCGAGAGAAGGGUGCACCUGCG [Arenena] (Eterna round: R96, puzzle: Exclusion NG 2) | 147 nM | 64.9 nM | 65.7 nM
2 | ACAGUGUUAGGAUAUCUGAGAGUUAGUCUCGACUAGUCGAAGGAGAAGGAACAUGAGGAUCACCCAUGUAGAUC [EX4 #77] (Eterna round: R97, puzzle: Exclusion 4) | 144 nM |  | 35.8 nM
3 | ACAUAAAAGGCAGGAUAUUCAAACCCAUAGCUAGAAGAAGGGCCGAAGAACUUCUAACAUGAGGAUCACCCAUGUGAGCAUGGG [Ininesxeed] (Eterna round: R96, puzzle: Exclusion NG 1) | 82.4 nM | 43.9 nM | 64.6 nM
4 | ACAUCACAGCUAGGAUAUAUAUGACAUGAGGAUCACCCAUGUUGUCCCAUGUUGACGAAAACCGAAUAGAAGGAGCUACAGAUG [Ex NG2 #4] (Eterna round: R96, puzzle: Exclusion NG 2) | 53.2 nM | 54.9 nM | 64.2 nM
5 | ACAUGACAGCUAGGAUAUAUAUGACAUGAGGAUCACCCAUGUUGUCCCAUGUUGACGAAAACCGAAUAGAAGGAGCCACCCAUG [Ex NG2 #2] (Eterna round: R96, puzzle: Exclusion NG 2) | 86.1 nM | 53.6 nM | 71.4 nM
6 | ACAUGACUGCUAGGAUAUAGAUGACAUGAGGAUCACCCAUGUUGUCCCAUGUUUAUGGAAACGGACUAGAAGGAGCAGUAUAUG [Ex NG2 #13] (Eterna round: R96, puzzle: Exclusion NG 2) | 18.8 nM | 26.2 nM | 20.2 nM
7 | ACAUGAGGAUCACCCAUGUAAUGAUGGGUACUAUAUUAUUCGUAGGAUAUCGUUGUUAGUUUGUUCGAGAAGGACGAUUGCCUU [JR_ExcNG3_Sub054] (Eterna round: R96, puzzle: Exclusion NG 3) | 612 nM | 385 nM | 520 nM
8 | ACAUGAGGAUCACCCAUGUACGGUUGGUUUUCUCCGGCUGUUGAGGAUAUAGUCCGGUAUCCGCGCUAGAAGGUGAGGGUUGGC [Aenatbe mod 11] (Eterna round: R96, puzzle: Exclusion NG 3) | 104 nM | 74.6 nM | 87.6 nM
9 | ACAUGAGGAUCACCCAUGUAGACAGCUGCAACCGGUGAAAGACAGGAUAUGUGACGGCACAGGGAACAGAAGGGUCAAAGAAAA [Ceatasoes] (Eterna round: R96, puzzle: Exclusion NG 3) | 21.2 nM | 22 nM | 30.9 nM
10 | ACAUGAGGAUCACCCAUGUCAGGCUGGUCCACUCCGGCUGUUGAGGAUAUAGCCCGGUAUCCGCGCUAGAAGGUGAGGGCCGGC [Aenatbe mod 27] (Eterna round: R96, puzzle: Exclusion NG 3) | 25.5 nM | 17.6 nM | 23 nM
11 | ACAUGAGGAUCACCCAUGUCAGGCUGGUCCGCUCCGGCUGUUGAGGAUAUAGCCCGGUAUCCGCGCUAGAAGGUGAGGGCCGGC [Aenatbe mod 28] (Eterna round: R96, puzzle: Exclusion NG 3) | 24.8 nM | 26.3 nM | 28.4 nM
12 | ACAUGAGGAUCACCCAUGUCAGGCUGGUCCGCUCCGGCUGUUGAGGAUAUAGCUCGGUGUCCGCGCUAGAAGGUGAGGGCCGGC [Aenatbe mod 32] (Eterna round: R96, puzzle: Exclusion NG 3) | 25.3 nM | 19.3 nM | 24.6 nM
13 | ACAUGAGGAUCACCCAUGUCCGGCUGGUCCGUCUCGGCUGUCGAGGAUAUAGCUUGGUGUCCGCGCUAGAAGGUGGGAGCUGGU [Aenatbe mod 69] (Eterna round: R96, puzzle: Exclusion NG 3) | 99.7 nM | 53.1 nM | 96.6 nM
